Measured values: US7795386B2, “Peptides comprising an isoDGR motif” (Molmed SpA, priority 2004, dated 2010)
Values belong to the molecule of their own block, whether it stands above or below them.

Assays:
EA.hy926 cells [1] = assay: PIMT treatment of coated products followed by EA.hy926 cell adhesion assay; format: cell-based, human; conditions: PIMT 16 h at 37° C.
Experimental: Microtiterplates were coated with heat-treated FN-I5 or NGR-TNF (A), or with natural FN-30 KDa, FN-45 KDa or retronectin (RN) (CNGRC disclosed as SEQ ID NO: 6) (B). The adsorbed proteins were then treated with PIMT enzyme for 16 h at 37° C. After incubation the enzyme solution was removed by washing. EA.hy926 cell adhesion assay was then performed as described in Materials and Methods.
The effect of protei nL-isoAsp/D-As pO-methyltransferase (PIMT) on the pro-adhesive properties of different fragments was investigated as follows: microtiter plates were coated with various products as described above and washed with 0.9% sodium chloride. Each well was then filled with 45 μl of a solution containing 0.02 mM S-adenosyl-L-methionine in 150 mM sodium chloride, 50 mM sodium phosphate buffer, pH 6.8, and 5 μl of PIMT solution (from the Isoquant Isoaspartate Detection kit, Promega) (final volume 50 μl/well) and incubated at 37° C. for 16 h. After incubation the plates were washed with 0.9% sodium chloride and cell adhesion assay was performed as described above.

[2] = tested on: EA.hy926 cell adhesion to vitronectin; assay: inhibition of EA.hy926 cell adhesion to vitronectin; format: cell-based, human; conditions: vitronectin 3 μg/ml coated
Experimental: (A) Inhibition of EA.hy926 cell adhesion to vitronectin by heat-treated FN-I5. Vitronectin (3 μg/ml) was adsorbed to microtiter plate and cell adhesion assay was performed as described in Materials and Methods.
(§1) Untreated and “heat treated” fibronectin fragments, peptides and peptide-TNF conjugates were diluted at the desired concentration with 150 mM sodium chloride, 50 mM sodium phosphate, pH 7.3, and added to 96-well polyvinyl chloride microtiter plates (Falcon, Becton Dickinson). After overnight incubation at 4° C., the plates were washed, seeded with EA.hy926 cell in DMEM containing 0.1% BSA (40000 cells/well) and left to incubate for 2-3 h at 37° C., 5% CO2. Adherent cells were fixed and stained with crystal violet as described (Curnis et al., 2005).

RMA lymphoma = RMA lymphoma tumor growth in mice, heat-treated FN-I5; format: in vivo, mouse; conditions: 200 μg i.p. daily from day 4; p=0.0003 at day 14
Experimental: (B) Anti-tumor effects of repeated administration of “heat-treated” FN-I5 to RMA-tumor bearing mice. Animals (5/group) were treated with 200 μg of “heat-treated” FN-I5 (i.p.) at the indicated times (arrows) starting 4 days after tumor implantation. * p=0.0003 at day 14, statistical analysis by two tailed t-test.
Studies on animal models were approved by the Ethical Committee of the San Raffaele H Scientific Institute and performed according to the prescribed guidelines. C57BL/6N mice (Charles River Laboratories, Calco, Italy) weighing 16-18 g were challenged with subcutaneous injection in the left flank of 7×10^4 RMA living cells; 4 days later, the mice were treated daily with 200 μg of heat-treated FN-I5 (100 μl) in 0.9% sodium chloride (i.p.). Tumor growth was monitored by measuring the tumors with calipers as previously described (Gasparri et al., 1999). Animals were sacrificed before the tumors reached 1.0-1.3 cm in diameter. Tumor sizes are shown as mean±SE (5 animals/group).

L-M mouse fibroblasts = assay: standard cytolytic assay with L-M mouse fibroblasts; format: cell-based; conditions: for Cytolytic Activity: in vitro, L-M murine fibroblasts
From the text: Protein purity and identity were checked by SDS-PAGE, electrospray mass spectrometry and gel-filtration chromatography.
The cDNA coding for DGR-TNF (mouse TNF fused with the C-terminus of CDGRCG (SEQ ID NO: 24)) was obtained by PCR on NGR-TNF plasmid, using the following primers: 5′ […] 3′ (SEQ ID NO: 43) (5′ primer); 5′ […] ′3 (SEQ ID NO: 44) (3′ primer). Both primers were designed to allow the directional cloning into a pET101/D-TOPO plasmid expression kit (Invitrogen). The underlined sequence in 5′ primer contains the sequence necessary to enable the directional cloning and the initial translation codon whereas the 3′ primer contains the stop codon (underlined). The PCR reaction and the cloning procedure were performed as recommended by the manufacturer's instruction. […] The column was washed extensively 100 mM Tris-HCl buffer containing pH 8.0, loaded with DGR-TNF crude extract, diluted in 20 mM Tris-HCl buffer conatining 2 mM EDTA pH 8.0, and desorbed by elution with 7 M urea, 100 mM Tris-HCl, pH 8.0. DGR-TNF was then refolded as described (1). Briefly, the denatured products were dialyzed against 2.33 M urea, 100 mM Tris-HCl, pH 8.0 at 4° C. (140 min), followed by 1.55 M urea, 100 mM Tris-HCl, pH 8.0 (140 min), and 1 M urea, 100 mM Tris-HCl, pH 8 (140 min). Finally the products were dialyzed against 100 mM Tris-HCl, pH 8.0 (48 h). The products were centrifuged at 13000×g (10 min, 4° C.) and concentrated by ultra-filtration through a 10 KDa cut-off filter. All solutions used in the purification and refolding steps were prepared with sterile and endotoxin-free water (S.A.L.F. Laboratorio Farmacologico SpA, Bergamo, Italy). Protein concentration was measured using the BCA Protein Assay Reagent (Pierce, Rockford, Ill.). Protein purity and identity were checked by SDS-PAGE, electrospray mass spectrometry (ESI-MS) and analytical gel-filtration chromatography.

αvβ3 integrin [3] = molecular target: T1, αvβ3 integrin (Homo sapiens, UniProt P05106+P06756); assay: direct ELISA binding to purified integrin adsorbed on microtiterplates
T1 construct: purchased Immunological Sciences
Experimental: (A) Binding of heat-treated CNGRC-TNF and TNF to solid phases coated with purified human integrins. Single concentration (5 μg/ml) or various concentrations (inset) of CNGRC-TNF and TNF were used. Binding was detected with anti-TNF antibodies as described in Materials and Methods.
(B) Binding of biotinylated CNGRC-TNF1-11, CARAC-TNF1-11 and FN-I5 (complexed with streptavidin-peroxidase) to purified human integrins. Binding was detected by chromogenic reaction with o-phenylendiammine.
(§2) Human αvβ3, αvβ5, α5β1 and α1β1 integrins solutions, 0.5-2 μg/ml in phosphate buffered saline with Ca^2+ and Mg^2+ (DPBS, Cambrex), were added to 96-well polyvinylchloride microtiter plates (50 μl/well) and left to incubate overnight at 4° C. […] Bound peroxidase was detected by adding o-phenylendiammine chromogenic substrate.
(§3) Binding of biotinylated peptides (CNGRC (SEQ ID NO: 6)-TNF1-11, CARAC (SEQ ID NO: 36)-TNF1-11 and FN-I5) to purified integrins was studied using streptavidin-peroxidase conjugate complexes. Complexes were prepared by mixing various quantities (0.5-1 μg) of heat-treated biotinylated peptides in DPBS containing 3% BSA with 0.03 units of streptavidinperoxidase (binding capacity: 1 μg of biotin/unit of streptavidin-peroxidase) (final volume 15 μl). […] After washing with DPBS, bound peroxidase was detected by chromogenic reaction as described above. […]

EA.hy926 cells [4] = assay: EA.hy926 cell adhesion assay on coated microtiter plates; format: cell-based, human; conditions: for EA.hy926 cell adhesion to coated product after heat-treatment: 0.1 M ammonium bicarbonate buffer, pH 8.5, 16 h at 37° C.
Experimental: Adhesion of EA.hy926 cells to microtiter plates coated with various peptides and proteins before and after accelerated aging. Accelerated aging was performed by peptide incubation in 0.1 M ammonium bicarbonate buffer, pH 8.5, for 16 h at 37° C. (“heat-treatment”). Adhesion to: recombinant FN-I4-5 or control protein (FN-I4-5 (SGS)) (A), synthetic FN-I5 (B), recombinant CNGRC-TNF, CNGRC-TNF1-11 and control CARAC-TNF1-11 peptide (C), CDGRC-TNF (D). Heat-treated (37° C.) and untreated (−20° C.) products were adsorbed onto the plastic surface of microtiter wells (overnight at 4° C.). Microphotograph of wells coated with 30 μg/ml of heat-treated FN-I5 or BSA (B, right) or with 10 μg/ml of recombinant CNGRC-TNF or CDGRC-TNF (C, right), ×200. Cell adhesion assay was carried out as described in Materials and Methods. The TNF fusion constructs, including the TNF1-11 fusion constructs, were made as described Materials and Methods, and include a “G” linker.
as §1

[5] = isoaspartate (isoAsp) quantification, ISOQUANT enzymatic assay; conditions: for isoAsp (%): pmol of isoAsp/pmol of peptide (%)
From the text: IsoAsp content in untreated and “heat treated” CNGRC (SEQ ID NO: 6)—TNF and peptides was quantified by using the ISOQUANT™ Isoaspartate Detection Kit (Promega).

[6] = bolus, humans (Fraker et al., 1995); cited from earlier work
αvβ3 integrin [7] = molecular target: T1, αvβ3 integrin; assay: competitive binding of biotinylated NGR-TNF to αvβ3 coated plates; conditions: FN-I5 incubated at 37° C. in DMEM
Experimental: Biotinylated NGR-TNF (4 μg/ml) was mixed with different amount of the indicated peptides and added to αvβ3 coated plates. Binding was detected as described in Materials and Methods. IC50 was determined by nonlinear regression analysis using the GraphPad Prism software. The kinetics of deamidation of FN-I5 was determined by plotting the inhibitory concentration (IC50) versus the incubation times. Bars represent the confidence intervals for each determined IC50.
as §2, with “C. All subsequent steps were carried out at room temperature.” for “C.”
as §3

T1 sequence (P06756 31-889 limits assumed): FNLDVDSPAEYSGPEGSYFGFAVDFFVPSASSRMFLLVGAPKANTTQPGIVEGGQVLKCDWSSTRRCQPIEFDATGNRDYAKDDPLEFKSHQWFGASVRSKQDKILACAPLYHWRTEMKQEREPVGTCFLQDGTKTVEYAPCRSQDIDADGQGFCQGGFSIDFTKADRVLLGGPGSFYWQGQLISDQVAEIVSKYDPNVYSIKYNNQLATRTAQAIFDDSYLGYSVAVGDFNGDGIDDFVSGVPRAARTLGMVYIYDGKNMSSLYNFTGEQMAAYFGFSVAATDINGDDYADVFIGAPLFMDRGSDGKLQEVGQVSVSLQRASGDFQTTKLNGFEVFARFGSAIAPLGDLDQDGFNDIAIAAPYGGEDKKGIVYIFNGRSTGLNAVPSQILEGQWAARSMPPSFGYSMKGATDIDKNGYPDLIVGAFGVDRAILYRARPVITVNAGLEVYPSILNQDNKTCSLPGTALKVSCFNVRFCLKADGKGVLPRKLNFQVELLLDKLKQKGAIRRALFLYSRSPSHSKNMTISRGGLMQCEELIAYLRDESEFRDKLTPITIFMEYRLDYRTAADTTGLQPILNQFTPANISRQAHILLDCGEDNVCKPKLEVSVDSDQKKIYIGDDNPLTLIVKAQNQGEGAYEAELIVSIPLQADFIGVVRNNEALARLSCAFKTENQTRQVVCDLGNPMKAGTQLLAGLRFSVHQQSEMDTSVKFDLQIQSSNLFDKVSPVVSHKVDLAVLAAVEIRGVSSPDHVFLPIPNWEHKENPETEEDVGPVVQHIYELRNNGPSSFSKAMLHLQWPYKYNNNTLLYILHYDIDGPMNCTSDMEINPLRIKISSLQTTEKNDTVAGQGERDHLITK
T1 sequence (P06756 891-1048 partner limits assumed): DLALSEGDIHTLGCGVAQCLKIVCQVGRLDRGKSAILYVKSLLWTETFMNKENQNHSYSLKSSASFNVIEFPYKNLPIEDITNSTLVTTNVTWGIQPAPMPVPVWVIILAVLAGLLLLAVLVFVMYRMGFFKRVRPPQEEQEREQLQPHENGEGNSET
T1 sequence (P05106 27-788): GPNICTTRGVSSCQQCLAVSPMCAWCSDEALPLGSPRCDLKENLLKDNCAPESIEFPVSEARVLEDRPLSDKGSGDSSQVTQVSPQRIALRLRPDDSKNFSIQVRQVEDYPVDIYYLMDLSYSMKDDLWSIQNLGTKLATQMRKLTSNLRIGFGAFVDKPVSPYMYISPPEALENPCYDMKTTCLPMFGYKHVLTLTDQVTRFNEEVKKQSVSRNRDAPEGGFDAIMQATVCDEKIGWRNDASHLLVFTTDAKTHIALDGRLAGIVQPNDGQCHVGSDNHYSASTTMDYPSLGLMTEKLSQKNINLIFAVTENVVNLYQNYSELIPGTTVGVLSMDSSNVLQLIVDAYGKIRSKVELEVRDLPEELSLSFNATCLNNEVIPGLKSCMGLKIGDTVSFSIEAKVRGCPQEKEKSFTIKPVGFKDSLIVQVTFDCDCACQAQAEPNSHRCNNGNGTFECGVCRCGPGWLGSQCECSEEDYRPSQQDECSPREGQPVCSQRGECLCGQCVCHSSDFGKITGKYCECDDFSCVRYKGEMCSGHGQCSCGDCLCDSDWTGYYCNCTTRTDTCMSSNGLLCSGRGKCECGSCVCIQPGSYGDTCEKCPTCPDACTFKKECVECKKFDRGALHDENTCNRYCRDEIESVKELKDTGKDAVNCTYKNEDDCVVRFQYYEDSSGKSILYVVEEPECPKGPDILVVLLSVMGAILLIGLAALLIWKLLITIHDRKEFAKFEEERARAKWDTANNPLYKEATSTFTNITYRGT

Molecule: heat-treated FN-I5: FN-I5 incubated in 0.1 M ammonium bicarbonate buffer, pH 8.5, 16 h at 37° C. (deamidated)
- effect of PIMT on pro-adhesive activity (EA.hy926 cells [1]): almost completely inhibited
- inhibition of adhesion of EA.hy926 cells to vitronectin [2]: could inhibit
- tumor growth in RMA lymphoma bearing mice (RMA lymphoma): significantly inhibited tumor growth

Molecule: TNF: murine TNF by recombinant DNA technology; in b159 bolus TNF in humans (literature) [reference compound]
- Cytolytic Activity (L-M mouse fibroblasts): 8 × 10^8 U/mg
- binding to αvβ3 (αvβ3 integrin [3]; heat-treated products, in words): No binding
- EA.hy926 cell adhesion to coated product after heat-treatment (EA.hy926 cells [4]): No adhesion
- EA.hy926 cell adhesion to coated product (EA.hy926 cells [4]; before heat treatment): No adhesion
- isoAsp (%) [5]: 2.6%
- maximum tolerated dose [6]: 218-410 μg/m^2

- incubation time to maximal competitive binding activity (αvβ3 integrin [7]): 24 to 48 h
Molecule: FN-I5: synthetic peptide, 5th type I repeat of human fibronectin, residues 230-274, additional N-terminal acetyl-glycine, Glu250 in place of Asp250

- binding to αvβ3 before heat treatment (αvβ3 integrin [3]; untreated, data not shown): to a lower extent
B1: Cys-Asn-Gly-Arg-Cys-Gly-(SEQ ID NO: 7)TNF (protein)
chain: CNGRCGLRSSSQNSSDKPVAHVVANHQVEEQLEWLSQRANALLANGMDLKDNQLVVPADGLYLVYSQVLFKGQGCPDYVLLTHTVSRFAISYQEKVNLLSAVKSPCPKDTPEGAELKPWYEPIYLGGVFQLEKGDQLSAEVNLPKYLDFAESGQVYFGVIAL
notes: murine TNF fused with the C-terminus of CNGRCG, recombinant
- cytolytic activity after heat treatment (L-M mouse fibroblasts; 0.1 M ammonium bicarbonate buffer, pH 8.5, 37° C., 4 h of treatment): no loss of cytolytic activity
- Cytolytic Activity (L-M mouse fibroblasts): 2.96 (±0.56)×10^8 U/mg
- Cytolytic Activity (L-M mouse fibroblasts; listed as NGR-TNF): 2.9 × 10^8 U/mg
- EA.hy926 cell adhesion to coated product after heat-treatment (EA.hy926 cells [4]): increased cell adhesion
- isoAsp content after heat treatment ([5]; 0.1 M ammonium bicarbonate pH 8.5, 16 h, 37° C.): > 0.5 mol isoAsp/mol CNGRC-TNF subunit
- isoAsp (%) [5]: 29.8%

B2: heat-treated CNGRC-TNF: CNGRC-TNF incubated in 0.1 M ammonium bicarbonate buffer, pH 8.5, 16 h at 37° C. (protein)
chain: CNGRCGLRSSSQNSSDKPVAHVVANHQVEEQLEWLSQRANALLANGMDLKDNQLVVPADGLYLVYSQVLFKGQGCPDYVLLTHTVSRFAISYQEKVNLLSAVKSPCPKDTPEGAELKPWYEPIYLGGVFQLEKGDQLSAEVNLPKYLDFAESGQVYFGVIAL
- effect of PIMT on pro-adhesive activity (EA.hy926 cells [1]): almost completely inhibited
